Assay results as given in publication doi:10.1101/2025.02.13.638205 (2025).

B1: nanobody W2810 (VHH)
VHH: QVQLQESGGGLVQAGGSLRLSCAASGRTFSSYAMGWFHQAPGKEREFVASISWSGGSIRYADSVKGRFTVSRDNAKNTAYLQMNSLKPEDTGVYYCAAGPYSSDYGGFGSWGQGTQVTVSS
B2: recombinant Pfs230 D13D14 (K2828-E3111) (domain or fragment)
chain: KTIGKDICKYDVTTKVATCEIIDTIDSSVLKEHHTVHYSITLSRWDKLIIKYPTNEKTHFENFFVNPFNLKDKVLYNYNKPINIEHILPGAITTDIYDTRTKIKQYILRIPPYVHKDIHFSLEFNNSLSLTKQNQNIIYGNVAKIFIHINQGYKEIHGCDFTGKYSHLFTYSKKPLPNDDDICNVTIGNNTFSGFACLSHFELKPNNCFSSVYDYNEANKVKKLFDLSTKVELDHIKQNTSGYTLSYIIFNKESTKLKFSCTCSSNYSNYTIRITFDPNYIIPE
B3: nanobody W2812 (VHH)
VHH: QVQLQESGGGLVQPGGSLRLSCAASGRTFSSYMMAWFRQSQGNERELVAGLTRSGVSAYYADSVKGRFTISRDNAKNTVYLQMNSLKPKDTAVYYCAAASTTYINHIYTNPSNYPHWGPGTQVTVSS

Columns and labels:
[1] = target: B2; assay: BLI
[2] = target: W2811; assay: BLI

| Binder | Kd [1] [nM] | Kd [2] [nM] |
| --- | --- | --- |
| B1 | 4.8 |  |
| B2 |  | 5.12 |
| B3 | 1.55 |  |
